B1: HDV Ribozyme (parent)
chain: GGCCGGCAUGGUCCCAGCCUCCUCGCUGGCGCCGGCUGGGCAACAUUCCGAGGGGACCGUCCCCUCGGUAAUGGCGAAUGGGACCCA

Variants of: B1
Experiment: self-cleavage, relative activity (ratio to wild type); higher = more cleavage; co-transcriptional
U60C C66A showed a self-cleavage of 1.14. For C33U G52C, the self-cleavage was 0.596. For A42C C85U, the self-cleavage was 0.415. With G29C A78U the self-cleavage was 0.0773. In the case of C13U A87G, the self-cleavage is reported as 0.634. For C24G A87U, the self-cleavage was 0.0902. For G25C A77U, the self-cleavage was 0. C49U G52C showed a self-cleavage of 0.866. C33U G82C gave a self-cleavage of 0.245. Work on A45G G54U yielded a self-cleavage of 1.17. In the case of G2U C22U, the self-cleavage is reported as 0.032. In the case of C33A G35C, the self-cleavage is reported as 0.133. Variant U9G U20A has a self-cleavage of 0. In the case of U23C G67U, the self-cleavage is reported as 0.743. In the case of U65G G81C, the self-cleavage is reported as 0.439. Work on C15A A42C yielded a self-cleavage of 0.122. With G38C G54C the self-cleavage was 0.237. For G31A G39A, the self-cleavage was 0.257. Work on C33U U47G yielded a self-cleavage of 0.692. C24G C32A showed a self-cleavage of 0. C26A C33G gave a self-cleavage of 0.317. Work on G25C U27A yielded a self-cleavage of 0.175. For U20A U60C, the self-cleavage was 0. C64U G81U gave a self-cleavage of 0.313. Work on C22A C62A yielded a self-cleavage of 0.339. Work on A8G A51U yielded a self-cleavage of 1.06. For G25A G59C, the self-cleavage was 0.332. C3A U37C gave a self-cleavage of 0.661. G2U U12A showed a self-cleavage of 0.17. G31A G39U gave a self-cleavage of 0.0898. In the case of G50U A77G, the self-cleavage is reported as 0.639. For C7U C64U, the self-cleavage was 0.68. G59C G76C gave a self-cleavage of 1.19. Variant C13A G40C has a self-cleavage of 0. G53C C75U showed a self-cleavage of 0.131. With C3U U69A the self-cleavage was 0.831. In the case of U37C G73U, the self-cleavage is reported as 0.185. In the case of A8U G10U, the self-cleavage is reported as 0.341. Variant C30U G76C has a self-cleavage of 0.683. With U23A C84G the self-cleavage was 0.601. For C19U U69A, the self-cleavage was 0.212. With C19G G67A the self-cleavage was 0.0779. C26G C33U showed a self-cleavage of 0.867. For C33U C84U, the self-cleavage was 0.479. Work on U60G A70G yielded a self-cleavage of 0.911. For U12C G76U, the self-cleavage was 0.489. Variant U12G C75U has a self-cleavage of 0. C18G A83C gave a self-cleavage of 0.192. G28C G29U gave a self-cleavage of 0. Work on C24U U69G yielded a self-cleavage of 0.764. A42C C62G showed a self-cleavage of 0.0898. For G1U C32A, the self-cleavage was 0.289. Work on U9A C61G yielded a self-cleavage of 0.682. In the case of C66A A77G, the self-cleavage is reported as 0.706. Work on C21U G74U yielded a self-cleavage of 0.0875. For C44A C61U, the self-cleavage was 0.758. G34U C36U gave a self-cleavage of 0.0482. With G34U C86G the self-cleavage was 0.205. Work on C13U U46A yielded a self-cleavage of 0.219. G11A C58U showed a self-cleavage of 0.322. U60A A87G gave a self-cleavage of 0.823. Variant G6C C30U has a self-cleavage of 0.0723. For C18A A87C, the self-cleavage was 0.134. In the case of A8U C26G, the self-cleavage is reported as 1.03. With C24G C75A the self-cleavage was 0.0277. Variant G34U C48A has a self-cleavage of 0.251. Variant U23C U79C has a self-cleavage of 0.232. For C13G G38A, the self-cleavage was 0.0302. Work on C18A C66A yielded a self-cleavage of 0.208. Variant G38U G39A has a self-cleavage of 0.0415. For A8C C63U, the self-cleavage was 0.633. With C13U A77U the self-cleavage was 0.155. Work on G40C G82C yielded a self-cleavage of 0.188. Work on A8G C13A yielded a self-cleavage of 0.175. G54U U79G showed a self-cleavage of 0.266. With C48A G50U the self-cleavage was 1.17. In the case of C62U A71C, the self-cleavage is reported as 0.812. In the case of C21A C30U, the self-cleavage is reported as 0.0519. Variant C63U C64U has a self-cleavage of 1.08. Variant G29C U72G has a self-cleavage of 0.208. With G39A G67C the self-cleavage was 0.665. With U27A G68A the self-cleavage was 0.944. For A43C C62U, the self-cleavage was 0.508. With C19G C58A the self-cleavage was 0.0256. G5A C66U showed a self-cleavage of 0.305. G38U C85G gave a self-cleavage of 0.295. In the case of A8C A16U, the self-cleavage is reported as 1.16. Variant C13A G34A has a self-cleavage of 0.131. In the case of C63G C85G, the self-cleavage is reported as 1.02. C21U G39A gave a self-cleavage of 0.993. In the case of A70U G82C, the self-cleavage is reported as 0.35. With U46A A78G the self-cleavage was 0.277. In the case of C14A U79C, the self-cleavage is reported as 0.173. For C44G A71C, the self-cleavage was 0.76. For G10C G50U, the self-cleavage was 0.956. Work on C64U A78C yielded a self-cleavage of 0.138. Work on A56U C63G yielded a self-cleavage of 0.815. C26U G53A gave a self-cleavage of 1.16. C22G G82U showed a self-cleavage of 0.0652. C30G C84A showed a self-cleavage of 0. Variant C19A G31A has a self-cleavage of 0.117. G35C U65A gave a self-cleavage of 0.233. Work on C18G G73A yielded a self-cleavage of 0. For G1C G34U, the self-cleavage was 0.0692. Work on G82A C84A yielded a self-cleavage of 0.399. Variant C24A G80A has a self-cleavage of 0.131. C7U U20A gave a self-cleavage of 0.0594. Work on C13G A87C yielded a self-cleavage of 0. U9G G38U gave a self-cleavage of 0. G53A G55U gave a self-cleavage of 1.17. For A51G G74A, the self-cleavage was 0.406. U23G G40C gave a self-cleavage of 0.135. With C41G C57U the self-cleavage was 1.04. Work on G28U U79A yielded a self-cleavage of 0.0978. With C62U G82U the self-cleavage was 0.402. G10A C41G gave a self-cleavage of 0.68. With C24A C63A the self-cleavage was 0.882. G5C C85G showed a self-cleavage of 0.0755. In the case of A8G C15U, the self-cleavage is reported as 0.7. In the case of C62A U72C, the self-cleavage is reported as 0.38. With G53U the self-cleavage was 1.01. In the case of C30U C66G, the self-cleavage is reported as 0.607. For G39C C85G, the self-cleavage was 0.298. For C15G G38A, the self-cleavage was 0. With C30A U60C the self-cleavage was 0.582. In the case of C30G G40U, the self-cleavage is reported as 0.0514. For C19G C22G, the self-cleavage was 0. Work on U27C A70U yielded a self-cleavage of 0.72. For C3A C32U, the self-cleavage was 0.119. Variant A16G C41G has a self-cleavage of 0.623. G10U C13A gave a self-cleavage of 0.0332. Variant C18U G55U has a self-cleavage of 0.595. In the case of A56C U72C, the self-cleavage is reported as 0.539. With G25C G39A the self-cleavage was 0.119. Variant C48U G67C has a self-cleavage of 1.01. Variant G5U U23G has a self-cleavage of 0. With G6A G28C the self-cleavage was 0. Work on A8C U9G yielded a self-cleavage of 0.692. Variant C44U G55A has a self-cleavage of 0.831. A71G A87U gave a self-cleavage of 0.95. Work on C57A G59C yielded a self-cleavage of 0.923. Work on C21A C58U yielded a self-cleavage of 0.0627. In the case of G52C G82C, the self-cleavage is reported as 0.141. Work on C22U yielded a self-cleavage of 0.736. Variant C49U C62G has a self-cleavage of 0.665. In the case of G5A C58G, the self-cleavage is reported as 0.119. Variant U65A G68C has a self-cleavage of 0. Variant G6C C49A has a self-cleavage of 0.262. U12C G35U showed a self-cleavage of 0. C18U G35A showed a self-cleavage of 0.0906. In the case of U47G G67C, the self-cleavage is reported as 0.554. C21A U37C showed a self-cleavage of 0.196. Work on G10C G35A yielded a self-cleavage of 0.525. In the case of C13A G38C, the self-cleavage is reported as 0.106. Work on U27G G50A yielded a self-cleavage of 0.923. For U20A A51C, the self-cleavage was 0. C32U U37A showed a self-cleavage of 0.252. In the case of C7G A51C, the self-cleavage is reported as 0.437. In the case of A51C G74C, the self-cleavage is reported as 0.196. For G10C C61U, the self-cleavage was 0.578. Variant A42C A78C has a self-cleavage of 0.169. G2U C61G showed a self-cleavage of 0.0386. G55U showed a self-cleavage of 1.01. C57U C84A gave a self-cleavage of 0.748. With C3A G82C the self-cleavage was 0.056. With G5A U37G the self-cleavage was 0.0504. In the case of C64G A77G, the self-cleavage is reported as 0.434.
